Laboratory results published in patent publication US12559545.

B1: HENV-103 (antibody, V domains shown)
VH: QVQLQGSGPGLVKPSQTLSLTCSVSGGSVSRSGYYWGWIRQHPGKGLECIGYIYYSGITYYNPSLSGRLTISVDTSKNQFSLELSSVTAADTAVYYCARVWLGGGVFDFWGQGSLVTVSS
VL: EIVMTQSPATLSVSPGEGATLSCRASQSVSSNLAWYQQKPGQAPRLLIYDASTRATGIPARFSGSGSGTEFTLTISSLQSEDFAVYYCQQYNDWRTFGRGTKVEMR
B2: HENV-58 (antibody, V domains shown)
VH: QVQLVQSGAEVKKPGSSVKVSCKASGGTFSNYVISWVRQAPGQGFEWMGRIIPMIGISNYAQKFQDRVTITADKDESTTTAYMELRGLRSEDTAMYYCASSTVTEVGAWGQGTLVTVSS
VL: AIQLTQSPSSLSASIGDRVTITCRASQGISSALAWFQQKPGKPPILLIYDASSLESGVPARFSGSGSGTDFTLTISSLQPEDFATYYCQQFYNHPLTFGPGTKVDIK
B3: HENV-117 (antibody, V domains shown)
VH: QVQLQQWGAGLLKPSETLSLTCDLSGGSFTNYYWTWIRHLPGKGLEWLGEINHSGRTNYSPSLKSRVTISVDTSKNQFSLRLSSVTAADTAVYYCARDIRKLAPKPHSYDLYYGMDVWGQGTTVTVSS
VL: EIVLTQSPGTLSLSPGERATLSCRASQSVGSNYLTWYQQKPGQPPRLLIYGASNRAAGIPDRFSGSGSGTDFTLTISRLEPEDFAVYYCQQYETSSRTFGQGTKVDIR
B4: HENV-150 (antibody, V domains shown)
VH: EVQLLESGGGLVQPGGSLRLSCAASGFTFSSSAMSWVRQTPGKGLEWVSTISGSGANTYYAASVKGRFPISRDNSKNTLFLQMNSLRAEDTAVYYCAKVSTVTFGGHVPRGSYFDYWGQGTQVTVSS
VL: SYVLTQPPSVSVAPGQTARIPCGGNNIGSKSVHWYQQKPGQAPVLVVYDENDRPSGIPERFSASKSGNTATLTISRVEAGDEADYYCQVWDSRSDHYVFGTGTKVTVL
B5: HENV-141 (antibody, V domains shown)
VH: QVQLVQSGAEVKKPGSSVKVSCKASGGTFSSYTISWVRQAPGQGLEWMGRIIPISGITNYAQKFQGRVTITADKSTSTAYMELSSLRSEDTAVYYCAKDCYYGSGTYYGCRADYQWHHTMDVWGQGTTVTVSS
VL: DIQMTQSPSSLSASVGDRVTITCRASQGIRNDLGWFQQKPGKAPKRLIYAASSLQSGVPSRFSGSGSGTEFTLTISSLQPEDFATYFCLQHNTYPLTFGQGTKVEIK
B6: HENV-242 (antibody, V domains shown)
VH: QVQLVQSGAEVKKPGSSVTVSCKTSGGTFSGYAVSWVRQAPGQGLEWMGRIVPQFNIPNYAQKFQDRVTITADESTGTSYMELSSLRSDDTAVFYCARENIQTIFGVVAMMGGGGYFDSWGQGTLVTVSS
VL: DIQMTQSPSSLSASVGDRVTITCQANQDINTYLNWYLQKPGKAPQLLVFDASNLVTGVPSRFSGGGSRTDFTLTIDSLQPEDIGTYYCQQYDHLPRRTFTFGPGTKVDLK
B7: HENV-99 (antibody, V domains shown)
VH: QVLLVQSGAEVRKPGASVKVSCRASGYTFTDYYMHWVRQAPGQGLEWMGWINPNSGATKYAQKFQGRVTLTRDTSINTAYMELSGLRSVDTAVFYCASVPPSGFFYWGSDYWGQGTLVTVSS
VL: DVVLTQSPLSLPVTLGQPASISCRSSQSLVYSDGTTYLNWFQQRPGQSPRRLIYKVSYRDSGVPDRFSGSGSGTDFTLEISRVEAEDVGIYYCMHGTHWETWTFGQGTKVEIK
B8: HENV-226 (antibody, V domains shown)
VH: EERLVQSGGGLAQPGQSLRLSCAGFGFTFTRYEMNWVRQAPGKGLEWIAHISTRGDTISYADSVKGRATISRDDTNNSLDLQMDSLRAEDTAIYFCARDRGSLSTRPPDSYHYYYHGMDVWGQGTTVIVSS
VL: EIVLTQSPATLSLSPGERATLSCRASQSIDTYLAWYQQKPGQAPRLLIYDASNRATGIPARFSGSGSGTDFSLTISSLEPDDFAVYYCQQRSNRPPRYTFGLGTRLEIK
B9: HENV-188 (antibody, V domains shown)
VH: QVQVVESGGGVVHPGRSLRLSCAGSGFIFNNYAFHWVRQAPGGGLEWMAYISYDGRYKYYAASVRGRFTISRDDSKNTLYLQMSSLRTEDTALYYCAISDYAEPLDNWGQGTLVTVSS
VL: QIVLTQSPATLSLSPGDRATLSCRASQSVSSNVAWYQQKPGQAPRLLIYNVSNRATGIPARFSGSGSGTDFTLTISSLEPEDFAVYYCHQRTNWPLTFGGGTKVEIK
B10: HENV-100 (antibody, V domains shown)
VH: QVQLVQSGAEVKKPGASVKVSCKASGYTFTSYYINWVRQAPGQGLEWVGTINPSGGSTTYAQKFQGRVTVTRDTSTSTVYMDLSGLRSGDTAVYYCARDRKGLAATPVYSDYYYGMDVWGQGTTVTVSS
VL: EIVLTQSPATLSLSPGERATLSCRASQSVSSFLAWYQQKPGQAPRLLISDASKRATGIPARFSGSGSGTDFSLTISSLEAEDFAVYYCQQSTNWRITFGQGTRLELK
B11: HENV-137 (antibody, V domains shown)
VH: EVQLVESGGGLVQPRGSLRLSCAASGFTFSGYWMSWVRQAPGKGLEWVAKIKKDGSEKTYVDSVKGRFTISRDNAKDSLYLQMNSLRAEDTAVYYCARERLLVPAAIVGLDYYYAMDVWGQGTTVTVSS
VL: DIQMTQSPSSLSASVGDRVTITCRASQNMSTYLNWYQQKPGKAPKFLIYGASRLQNGVPSRFSGGGSGTDFTLTISSLQPEDFATYYCQQSYNIPITFGQGTRLEIK
B12: HENV-142 (antibody, V domains shown)
VH: QVRLQESGPRLVKPSQTLSLTCTVSGGSISSRDYYWSWIRQHPGKGLEWIGYIYYSGTTYYNPSLESRVTLSLDTSKNQFSLDLTSVTAADTAVYHCARVWLGGGVFDFWGQGTLVTVSA
VL: EIVMTQSPDTLSVSPGERATLSCRASHSVTTNLAWYQQRPGQAPRLLIFDASTRATGIPARFSGSGSGTEFTLTIGSLQSEDFAVYYCQQYNDGRTFGQGTKVEIK
B13: HENV-122 (antibody, V domains shown)
VH: EVQLLESGGGLVQPGGSLRLSCAASGFTFSTNAMSWVRQAPGKGLEWVSTVSGSGAHPNYGDSVKGRFTISRVNSKNTLFLQMSSLRAEDTAIYYCARVSTVTVGGHIPRGYYFDYWGQGTLVTVSS
VL: EILLTQSPGTLSLSPGERATLSCRASQSASSSYLAWYQQKPGQAPRLLIYGASTRATGIPDRFSGSGSGTEFTLTISRLESEDFAVYYCHHYGSSRTFGQGTKVEVK
B14: HENV-184 (antibody, V domains shown)
VH: QVQLVQSGTEVKNPGSSVKVSCKASGGTFSGFGISWVRQAPGQGLEWMGGVLPIFGSPNYAQKFQGRVTITADESTGTAYMDLSSLRSDDTAMYYCARDQSGGFFDYWGQGTLVIVSS
VL: EIVLTQSPATLSLSPGERATLSCRASQSVSSNLAWYQQKPGQAPRLLIYDASDRATGVPARFSGSGSGTDFTLTISSLEPEDFALYYCQQRYNWRVTFGQGTRLEIK
B15: HENV-83 (antibody, V domains shown)
VH: QVQLVESGGGVVQPGGSLRLSCAASGFTFRSYSMNWVRQAPGKGPEWMAVISYDGSNKYYTDSVKGRFTISRDNSKNTLNLQMNSLTSEDTAIYYCARFRGGGRIAARPDDYGMDVWGQGTTVTVST
VL: DIQMTQSPSSLSASVGDRVTITCRASESVITYLNWYQQKPGKAPKLLIYGASTLESGVPSRFSGSGSGTVFTLTISSLQPEDIATYYCQQSYNMSPYTFGQGTKLEIK
B16: HENV-98 (antibody, V domains shown)
VH: AVQLVESGGGLVQPGGSLRLSCEASGFTFSGYWMSWVRQAPGKGLEWVANIKGDGSEKYYVDSVKGRFTIFRDNAKTSLYLQVNSLRAEDTAVYYCARERHFLAARPGYYIYSGLDVWGPGTTVTVSS
VL: DIQMTQSPSSLSASVGDRVTITCRASQSIDNYLNWYQQKPGKVPKLLIYAASNLQSGVPSKFSGGGSGTDFTLTISSLQPDDFATYYCQQSFGTPRTFGQGTRVEIK

target: NiVB-G (Nipah virus, strain Bangladesh)

Binder | EC50 [nM]
B1 | 1.34
B2 | 1.44
B3 | 1.2
B4 | 0.332
B5 | 0.778
B6 | 7.67
B7 | 1.16
B8 | 0.361
B9 | 1.26
B10 | 0.514
B11 | 0.84
B12 | 13
B13 | 0.382
B14 | 2.32
B15 | 2.79
B16 | 0.58
